Assay in all cases: ELISA on coated peptide-OVA conjugate, FCA control egg yolk sample, dilution not given
On the technique in general: An ELISA detects its analyte on a solid surface through an enzyme-linked reagent.

Test [1] concerns the target IL-10 Peptide #4 (SEQ ID NO: 10) conjugated to hen ovalbumin (avian animals, such as chickens, quail, and turkeys; hen) (UniProt P01012).
The target in test [2] is IL-10 Peptide #1 (SEQ ID NO: 1) conjugated to hen ovalbumin (avian animals, such as chickens, quail, and turkeys; hen) (UniProt P01012).
Test [3] addresses IL-10 Peptide #3 (SEQ ID NO: 7) conjugated to hen ovalbumin (avian animals, such as chickens, quail, and turkeys; hen) (UniProt P01012).

In the case of FCA control egg antibody, the optical density stood at 0.6 OD 450 nm in test [1], 0.56 OD 450 nm in test [2] and 0.499 OD 450 nm in test [3].

The values above are taken from US20170044251A1.
